In article PMC7437355 (2020) one finds Kd data, which are given here for 1 molecule.

In assay [1] the target is T1, SPRED1(EVH1), SPRED1(13–125), wild type (ITC) (human, UniProt Q7Z699 13-125).
T1 chain: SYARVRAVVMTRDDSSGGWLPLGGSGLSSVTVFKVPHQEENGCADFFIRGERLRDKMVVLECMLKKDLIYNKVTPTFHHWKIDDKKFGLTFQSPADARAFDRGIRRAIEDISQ
Description: ITC. Background: ITC needs no label: the signal is the heat of the interaction.

Assay [2] addresses KRAS4b(1–169), wild type, GMPPNP-bound (UniProt P01116-2 1-169). Description: ITC; GMPPNP.

B1: NF1 isoform I (GRD containing additional 23 residues) (domain or fragment)
chain: DRFERLVELVTMMGDQGELPIAMALANVVPCSQWDELARVLVTLFDSRHLLYQLLWNMFSKEVELADSMQTLFRGNSLASKIMTFCFKVYGATYLQKLLDPLLRIVITSSDWQHVSFEVDPTRLEPSESLEENQRNLLQMTEKFFHAIISSSSEFPPQLRSVCHCLYQATCHSLLNKATVKEKKENKKSVVSQRFPQNSIGAVGSAMFLRFINPAIVSPYEAGILDKKPPPRIERGLKLMSKILQSIANHVLFTKEEHMRPFNDFVKSNFDAARRFFLDIASDCPTSDAVNHSLSFISDGNVLALHRLLWNNQEKIGQYLSSNRDHKAVGRRPFDKMATLLAYLGPPEH
On to B1, for which the Kd (in general, the constant that tells how readily two partners part at equilibrium) in assay [1] worked out at 260 nM; in assay [2] it was 4 µM.
